Consider four molecules from US20220387586A1 (Hoffmann-La Roche, published 2022).

Test [1] concerns the target T1, hu PD1-ECD (human, UniProt Q15116 25-170).
T1 construct: SPR analyte; also called human PD1-ECD
As to the kind of experiment: SPR; row head 'Affinity KD 37° C.'; second of two numbers, equal to the 25 °C value of Table 3; second of the two numbers in the cell; only 37° C. is printed, split not explained. As for the experimental part:
(§1) The samples were injected for 20 seconds with a concentration of 10 nM and bound to the second flow cell.

Test [2] addresses T2, biotinylated PD1-ECD-AviHis (human, UniProt Q15116 25-170, biotinylated).
T2 construct: also called huPD1; hu PD1; not shown: Avi-His tag
As to the kind of experiment: ligand replacing ELISA; row head 'IC50 PD-L1, 2 [nM]' (ligand not told apart); competing ligand printed only as 'PD-L1, 2'. (ELISA stands for enzyme-linked immunosorbent assay.)

In test [3] the target is T2, biotinylated PD1-ECD-AviHis. Description: ELISA (hu PD1, as described above). Here is the method: After washing (3×90 μl/well with PBST-buffer) 25 μl/well goat-anti-human H+L-POD (JIR, JIR109-036-088)/Sheep-anti-mouse-POD (GE Healthcare; NA9310) was added in 1:2000/1:1000 dilution and incubated at RT for 1 h on shaker. After washing (3×90 μl/well with PBST-buffer) 25 μl/well TMB substrate (Roche Catalogue No. 11835033001) was added and incubated until OD 2-3. Measurement took place at 370/492 nm.

For test [4], the target named is T1, hu PD1-ECD. Description: SPR (Biacore T200), antibody captured by anti-human IgG, hu PD1-ECD as analyte, 25 °C, 1:1 Langmuir fit. As for the experimental part: Therefore, an anti-human IgG was immobilized by amine coupling to the surface of a (Biacore) CM5 sensor chip. […] The sensor chip surface was regenerated after each analysis cycle. The equilibrium constant and kinetic rate constants were finally gained by fitting the data to a 1:1 langmuir interaction model.
as §1
Finally the double referenced data was fitted to a 1:1 Langmuir interaction model with the Biacore T200 Evaluation Software.
(In general: Surface plasmon resonance follows binding to a sensor surface in real time, without labels.)

For test [5], the target named is T1, hu PD1-ECD. As to the kind of experiment: SPR; row head 'Affinity KD 37° C.'; first of two numbers; first of the two numbers in the cell, row head 37° C.
The target of test [6] is T3, human Fc tagged human Lag3 extra cellular domain (human, UniProt P18627 29-450, biotinylated in the epitope binning, the SA CAP SPR and the FACS competition assay).
T3 construct: In-house fusion; also called huLag3-Fc; biotinylated, huFc-tagged huLag3; not shown: human Fc tag
T3 sequence: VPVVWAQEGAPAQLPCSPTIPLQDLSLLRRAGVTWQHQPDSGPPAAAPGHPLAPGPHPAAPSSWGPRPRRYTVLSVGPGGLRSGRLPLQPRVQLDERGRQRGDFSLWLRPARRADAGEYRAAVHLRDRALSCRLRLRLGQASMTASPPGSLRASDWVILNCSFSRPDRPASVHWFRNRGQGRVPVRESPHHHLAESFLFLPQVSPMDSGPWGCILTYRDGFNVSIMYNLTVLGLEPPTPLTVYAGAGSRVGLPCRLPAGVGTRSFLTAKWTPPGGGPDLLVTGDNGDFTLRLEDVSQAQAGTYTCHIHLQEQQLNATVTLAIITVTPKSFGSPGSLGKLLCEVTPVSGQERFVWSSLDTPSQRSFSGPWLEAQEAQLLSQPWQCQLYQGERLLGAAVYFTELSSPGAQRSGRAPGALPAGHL
As to the kind of experiment: SPR (Biacore T200), huLag3-Fc captured, antibody Fab fragment as analyte, 25 °C. Here is the method:
(§2) Therefore two flow cells of a C1 biosensor chip were prepared in a Biacore T200 by immobilizing neutravidin, diluted to 25 μg/ml in acetate buffer pH 4.5, onto it using the ‘immobilization wizard’. […] Then, CaptureSelect™ Biotin Anti-IgG-Fc (Human) Conjugate was bound to the neutravidin, using a 20 μg/ml dilution in running buffer (HBS-EP+, GE Healthcare).
(§3) The method itself consisted of four commands per cycle. […] Second command: sample injection for 120s followed by a 1200s long dissociation at a flow speed of 30 μl/min. Third and fourth command: regeneration by injecting Glycine-HCl pH 1.5 for 30 seconds.

The target in test [7] is T3, human Fc tagged human Lag3 extra …. As to the kind of experiment: SPR (Biacore T200), huLag3-Fc captured, antibody Fab fragment as analyte, 25 °C, 1:1 Langmuir fit; monovalent (first value line); bivalent line is tbd. As for the experimental part: as §2, §3
The target is the same in test [8]. As to the kind of experiment: SPR (Biacore T200), huLag3-Fc captured, antibody Fab fragment as analyte, 25 °C, 1:1 Langmuir fit. Here is the method: as §2, §3
Test [9] concerns the target T4, biotinylated-Lag3 (UniProt P18627 23-450, limits assumed, biotinylated).
T4 construct: Probably a human LAG3 ECD construct; also called Lag3 (MHCII/ELISA)
T4 sequence (looked up): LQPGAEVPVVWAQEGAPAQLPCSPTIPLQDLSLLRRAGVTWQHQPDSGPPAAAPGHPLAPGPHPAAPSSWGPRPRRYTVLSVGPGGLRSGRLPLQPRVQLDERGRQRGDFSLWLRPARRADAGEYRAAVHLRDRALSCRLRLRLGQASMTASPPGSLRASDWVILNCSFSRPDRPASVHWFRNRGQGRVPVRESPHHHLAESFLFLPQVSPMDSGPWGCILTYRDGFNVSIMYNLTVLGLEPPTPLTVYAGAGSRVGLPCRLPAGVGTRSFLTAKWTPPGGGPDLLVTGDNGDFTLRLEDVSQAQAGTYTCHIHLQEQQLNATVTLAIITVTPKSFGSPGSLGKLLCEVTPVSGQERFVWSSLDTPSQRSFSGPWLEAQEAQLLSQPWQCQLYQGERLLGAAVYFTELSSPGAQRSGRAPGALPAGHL
As to the kind of experiment: ELISA, inhibition of biotinylated-Lag3 binding to MHC-II on A375 cells (competitor MHC-II); first of two numbers.

Test [10] concerns the target T4, biotinylated-Lag3. Description: ELISA, inhibition of biotinylated-Lag3 binding to MHC-II on A375 cells (competitor MHC-II); second of two numbers.
Test [11] addresses T3, human Fc tagged human Lag3 extra …. Description: FACS, inhibition of biotinylated Lag3:Fc binding to MHC-II on A375 cells (competitor MHC-II); antibody 10 µg/ml. As for the experimental part:
This analysis was studied in a FACS competition experiment: A375 cells (ATCC, #CRL-1619) were cultured for 2-3 passages in EM Eagle's medium supplemented with EBSS (PAN, cat.no. #P04-00509), 10% FBS, 2 mM L-Glutamin, 1×NEAA and 1× Sodium Pyruvate. All antibodies, were diluted in FACS buffer to a final concentration of 20 μg/ml in 25 μl (in 96well U-bottom plates). […] A375 cells were washed with PBS and adjusted to 3×10⁶ cells/ml in PBS. 100 μl were seeded per well in a 96well V-bottom plate. Plates were centrifuged and supernatant was removed. […] After this, cells were washed with 200 μl FACS buffer. […] After staining, cells were again washed and then transferred in 150 μl FACS buffer (PBS/2% FBS) to a U-bottom plate and analyzed on a FACS Canto-II using an HTS module.
All antibodies were used at 10 μg/ml final concentration.

T1 sequence (Q15116 25-170 limits assumed): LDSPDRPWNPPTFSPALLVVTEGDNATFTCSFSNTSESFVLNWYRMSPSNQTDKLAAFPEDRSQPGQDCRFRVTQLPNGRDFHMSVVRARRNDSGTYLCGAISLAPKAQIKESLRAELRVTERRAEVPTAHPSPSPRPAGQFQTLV
T2 sequence (Q15116 25-170): as the sequence (Q15116 25-170 limits assumed) above

B1: chimeric PD1-0103 (antibody, human IgG1, V domains shown)
VH: EVILVESGGGLVKPGGSLKLSCAASGFSFSSYTMSWVRQTPEKRLDWVATISGGGRDIYYPDSVKGRFTISRDNAKNTLYLEMSSLMSEDTALYYCVLLTGRVYFALDSWGQGTSVTVSS
VL: KIVLTQSPASLPVSLGQRATISCRASESVDTSDNSFIHWYQQRPGQSPKLLIYRSSTLESGVPARFSGSGSRTDFTLTIDPVEADDVATYYCQQNYDVPWTFGGGTKLEIK
notes: also called chiPD1-0103
One may read the IC50 as the concentration that gives 50% inhibition. Read a high IC50 as weaker potency in that assay. For orientation: EC50 means the concentration giving half of the maximal effect. A word on the koff: it is the first-order rate constant of dissociation. Low readings indicate slow dissociation, high ones fast dissociation. One may read the kon as the second-order rate constant of association. Low readings indicate slow association, high ones fast association. B1 gave a Kd in [1] of 0.8 nM. Besides, the IC50 in test [2] stood at 1.35 nM. For the same molecule, the EC50 in test [3] was determined as 0.2 nM. In test [4], the Kd was determined as 0.8 nM, the koff is 0.000307 s⁻¹ and the kon was determined as 386000 M⁻¹ s⁻¹. The Kd in [5] is 2 nM.

B2: aLAG3(0414) Fab fragment (Fab, V domains shown)
VH: EVQLLESGGGLVQPGGSLRLSCAASGFIFDDYTMNWVRQAPGKGLEWVAVISWDGGGTYYTDSVKGRFTISRDDFKNTLYLQMNSLRAEDTAVYYCAKGLTDTTLYGSDYWGQGTLVTVSS
VL: DIQMTQSPSSLSASVGDRVTITCRASQSISSYLNWYQQKPGKAPKLLIYAASTLQSGVPSRFSGSGSGTDFTLTISSLQPEDFATYYCQQTYSSPLTFGGGTKVEIK
Consider B2, for which the koff in test [6] came to 0.000195 s⁻¹. Moreover, the Kd in test [7] amounted to 0.463 nM.

B3: aLAG3(0416) Fab fragment (Fab, V domains shown)
VH: EVQLVESGGGLVQPGGSLRLACAASGFTFSDYAMSWVRQAPGKGLEWVSGIDNSGYYTYYTDSVKGRFTISRDDVKNTLYLQMNSLRAEDTAVYLCTKTHSGLIVNDAFDIWGQGTMVTVSS
VL: DIQLTQSPSSLSASVGDRVTITCRASQSISSYLNWYQQKPGKAPKLLIYDASSLESGVPSRFSGSGSGTDATLTISSLQPEDFATYYCQQSYSTPLTFGGGTKVEIK
As for B3, in [6], the koff stood at 0.000221 s⁻¹. In test [8], this molecule gave a Kd of 0.0282 nM.

B4: Reference MDX26H10 (antibody, V domains shown)
VH: QVQLVESGGGVVQPGRSLRLSCAASGFTFSSYGMHWVRQAPGKGLEWVAVIWYDGSNKYYADSVKGRFTISRDNSKNTLYLQMNSLRAEDTAVYYCAREWAVASWDYGMDVWGQGTTVTVSS
VL: not shown
notes: also called MDX-26H10 (26H10); aLAG3(MDX26H10)
As a reminder, the % Inhibition is how much of the control response was suppressed. Read a low % Inhibition as little suppression. For the molecule B4, the IC50 came out at 0.9 nM in test [9] and 0.6 nM in test [10]. For the same molecule, in test [11], the “% Inhibition” value came to 71.7%.
